{"source": "the supplement of paper PMC10567573", "parents": {"B1": {"name": "ZNF263 (parent)", "chain": "EKPYKCPECGEIFAHSSNLLRHQR"}}, "data": [{"variants_of": "B1", "assay": "protein stability index of a GFP-peptide fusion (GPS, HEK-293T) (PSI 1-6); higher = more stable", "conditions": "c terminus: a fixed tail appended", "values": [{"variant": "EKPYKCPECGEIFAHSSNLLRHQE", "protein stability index": 4.38}, {"variant": "EKPYKCPECGEIFAHSSNLLRHQK", "protein stability index": 3.25}, {"variant": "EKPYKCPECGEIFAHSSNLLRHQG", "protein stability index": 3.7}, {"variant": "EKPYKCPECGEIFAHSSNLLRHQC", "protein stability index": 5.28}, {"variant": "EKPYKCPECGEIFAHSSNLLRHQY", "protein stability index": 2.68}, {"variant": "EKPYKCPECGEIFAHSSNLLRHQA", "protein stability index": 4.17}, {"variant": "EKPYKCPECGEIFAHSSNLLRHQL", "protein stability index": 4.29}, {"variant": "EKPYKCPECGEIFAHSSNLLRHQH", "protein stability index": 4.43}, {"variant": "EKPYKCPECGEIFAHSSNLLRHQI", "protein stability index": 3.25}, {"variant": "EKPYKCPECGEIFAHSSNLLRHQT", "protein stability index": 3.24}, {"variant": "EKPYKCPECGEIFAHSSNLLRHQS", "protein stability index": 4.47}, {"variant": "EKPYKCPECGEIFAHSSNLLRHQW", "protein stability index": 2.74}, {"variant": "EKPYKCPECGEIFAHSSNLLRHQN", "protein stability index": 3.92}, {"variant": "EKPYKCPECGEIFAHSSNLLRHQF", "protein stability index": 3.32}, {"variant": "EKPYKCPECGEIFAHSSNLLRHQM", "protein stability index": 3.6}, {"variant": "EKPYKCPECGEIFAHSSNLLRHQQ", "protein stability index": 3.74}, {"variant": "EKPYKCPECGEIFAHSSNLLRHQD", "protein stability index": 3.96}, {"variant": "EKPYKCPECGEIFAHSSNLLRHQV", "protein stability index": 3.54}, {"variant": "EKPYKCPECGEIFAHSSNLLRHQP", "protein stability index": 3.44}, {"variant": "EKPYKCPECGEIFAHSSNYLRHQR", "protein stability index": 2.54}, {"variant": "EKPYKCPECGEIFAHSSNHLRHQR", "protein stability index": 3.63}, {"variant": "EKPYKCPECGEIFAHSSNMLRHQR", "protein stability index": 2.38}, {"variant": "EKPYKCPECGEIFAHSSNSLRHQR", "protein stability index": 2.61}, {"variant": "EKPYKCPECGEIFAHSSNDLRHQR", "protein stability index": 2.78}, {"variant": "EKPYKCPECGEIFAHSSNVLRHQR", "protein stability index": 2.92}, {"variant": "EKPYKCPECGEIFAHSSNCLRHQR", "protein stability index": 4.49}, {"variant": "EKPYKCPECGEIFAHSSNTLRHQR", "protein stability index": 2.16}, {"variant": "EKPYKCPECGEIFAHSSNALRHQR", "protein stability index": 1.84}, {"variant": "EKPYKCPECGEIFAHSSNNLRHQR", "protein stability index": 1.64}, {"variant": "EKPYKCPECGEIFAHSSNFLRHQR", "protein stability index": 2.68}, {"variant": "EKPYKCPECGEIFAHSSNQLRHQR", "protein stability index": 1.78}, {"variant": "EKPYKCPECGEIFAHSSNELRHQR", "protein stability index": 1.91}, {"variant": "EKPYKCPECGEIFAHSSNILRHQR", "protein stability index": 1.8}, {"variant": "EKPYKCPECGEIFAHSSNKLRHQR", "protein stability index": 2.73}, {"variant": "EKPYKCPECGEIFAHSSNPLRHQR", "protein stability index": 2.18}, {"variant": "EKPYKCPECGEIFAGSSNLLRHQR", "protein stability index": 2.55}, {"variant": "EKPYKCPECGEIFAVSSNLLRHQR", "protein stability index": 2.49}, {"variant": "EKPYKCPECGEIFASSSNLLRHQR", "protein stability index": 4.34}, {"variant": "EKPYKCPECGEIFANSSNLLRHQR", "protein stability index": 3.62}, {"variant": "EKPYKCPECGEIFAYSSNLLRHQR", "protein stability index": 1.8}, {"variant": "EKPYKCPECGEIFAISSNLLRHQR", "protein stability index": 1.7}, {"variant": "EKPYKCPECGEIFADSSNLLRHQR", "protein stability index": 3.96}, {"variant": "EKPYKCPECGEIFAWSSNLLRHQR", "protein stability index": 2.65}, {"variant": "EKPYKCPECGEIFALSSNLLRHQR", "protein stability index": 1.95}, {"variant": "EKPYKCPECGEIFAQSSNLLRHQR", "protein stability index": 3.15}, {"variant": "EKPYKCPECGEIFAMSSNLLRHQR", "protein stability index": 1.56}, {"variant": "EKPYKCPECGEIFARSSNLLRHQR", "protein stability index": 2.31}, {"variant": "EKPYKCPECGEIFAESSNLLRHQR", "protein stability index": 3.3}, {"variant": "EKPYKCPECGEIFAPSSNLLRHQR", "protein stability index": 2.54}, {"variant": "EKPYKCPECGEIFATSSNLLRHQR", "protein stability index": 3.55}, {"variant": "EKPYKCPECGEIFAFSSNLLRHQR", "protein stability index": 2.94}, {"variant": "EKPYKCPECGEIFAHLSNLLRHQR", "protein stability index": 3.26}, {"variant": "EKPYKCPECGEIFAHESNLLRHQR", "protein stability index": 3.04}, {"variant": "EKPYKCPECGEIFAHFSNLLRHQR", "protein stability index": 3.53}, {"variant": "EKPYKCPECGEIFAHVSNLLRHQR", "protein stability index": 2.83}, {"variant": "EKPYKCPECGEIFAHNSNLLRHQR", "protein stability index": 1.33}, {"variant": "EKPYKCPECGEIFAHDSNLLRHQR", "protein stability index": 2.47}, {"variant": "EKPYKCPECGEIFAHYSNLLRHQR", "protein stability index": 3.26}, {"variant": "EKPYKCPECGEIFAHWSNLLRHQR", "protein stability index": 3.44}, {"variant": "EKPYKCPECGEIFAHCSNLLRHQR", "protein stability index": 2.73}, {"variant": "EKPYKCPECGEIFAHRSNLLRHQR", "protein stability index": 2.3}, {"variant": "EKPYKCPECGEIFAHMSNLLRHQR", "protein stability index": 3.32}, {"variant": "EKPYKCPECGEIFAHASNLLRHQR", "protein stability index": 2.36}, {"variant": "EKPYKCPECGEIFAHQSNLLRHQR", "protein stability index": 2.45}, {"variant": "EKPYKCPECGEIFAHPSNLLRHQR", "protein stability index": 2.81}, {"variant": "EKPYKCPECGEIFAHHSNLLRHQR", "protein stability index": 2.55}, {"variant": "EKPYKCPECGEIFAHKSNLLRHQR", "protein stability index": 1.71}, {"variant": "EKPYKCPECGEIFAHISNLLRHQR", "protein stability index": 2.96}, {"variant": "EKPYKCPECGEIFAHGSNLLRHQR", "protein stability index": 2.48}, {"variant": "EKPYKCPECGEIFAHTSNLLRHQR", "protein stability index": 1.84}, {"variant": "EKPYKCPECGEIFAHSSNLLTHQR", "protein stability index": 4.27}, {"variant": "EKPYKCPECGEIFAHSSNLLMHQR", "protein stability index": 3.58}, {"variant": "EKPYKCPECGEIFAHSSNLLDHQR", "protein stability index": 4.24}, {"variant": "EKPYKCPECGEIFAHSSNLLNHQR", "protein stability index": 3.29}, {"variant": "EKPYKCPECGEIFAHSSNLLSHQR", "protein stability index": 2.89}, {"variant": "EKPYKCPECGEIFAHSSNLLLHQR", "protein stability index": 2.82}, {"variant": "EKPYKCPECGEIFAHSSNLLHHQR", "protein stability index": 3.35}, {"variant": "EKPYKCPECGEIFAHSSNLLAHQR", "protein stability index": 3.84}, {"variant": "EKPYKCPECGEIFAHSSNLLIHQR", "protein stability index": 3.75}, {"variant": "EKPYKCPECGEIFAHSSNLLGHQR", "protein stability index": 2.01}, {"variant": "EKPYKCPECGEIFAHSSNLLVHQR", "protein stability index": 2.85}, {"variant": "EKPYKCPECGEIFAHSSNLLEHQR", "protein stability index": 4.38}, {"variant": "EKPYKCPECGEIFAHSSNLLCHQR", "protein stability index": 3.98}, {"variant": "EKPYKCPECGEIFAHSSNLLKHQR", "protein stability index": 3.51}, {"variant": "EKPYKCPECGEIFAHSSNLLWHQR", "protein stability index": 3.43}, {"variant": "EKPYKCPECGEIFAHSSNLLYHQR", "protein stability index": 3.36}, {"variant": "EKPYKCPECGEIFAHSSNLLFHQR", "protein stability index": 3.04}, {"variant": "EKPYKCPECGEIFAHSSNLLPHQR", "protein stability index": 3.43}, {"variant": "EKPYKCPECGEIFAHSSNLLRDQR", "protein stability index": 3.17}, {"variant": "EKPYKCPECGEIFAHSSNLLRNQR", "protein stability index": 2.35}, {"variant": "EKPYKCPECGEIFAHSSNLLRRQR", "protein stability index": 3.03}, {"variant": "EKPYKCPECGEIFAHSSNLLRGQR", "protein stability index": 1.25}, {"variant": "EKPYKCPECGEIFAHSSNLLRKQR", "protein stability index": 2.16}, {"variant": "EKPYKCPECGEIFAHSSNLLRTQR", "protein stability index": 1.43}]}]}
